B1: DnaJ1 (recombinant) (natural protein, M. smegmatis, UniProt A0QQD0 1-390, looked up)
chain: MAQREWVEKDFYKELGVSSDASADEIKKAYRKLAAELHPDRNSDPGAAERFKAVSEANSVLSDPAKRKEYDETRRLFAGGFGRRFNQGGGGFGGGFGSDGVEFNLGDLFDAAGQTGGANIGDLFGGLFGRGPQQRPSRPRRGNDLETETELSFLEATKGVAMPLRLTSPAPCTNCHGSGARPGTSPKVCPSCNGSGVISRNQGAFGFSEPCTECRGSGSIIEHPCQECRGTGVTTRTRTINVRIPPGVEDGQRIRLAGQGEAGLRGAPSGDLYVTVHVRPDKVFGRDGDDLTVTVPVSFHELALGTTLSVPTLDGKVGVRVPKGTSDGRILRVRGRGVPKRSGGHGDLLVTVKVAVPPNLEGEAAEALEAYAKAERASGFDPRAGWAGNV
notes: H7-SUMO tags were removed with Ulp1 or left intact for microscale thermophoresis; also called Chaperone protein DnaJ1
B2: Magnesium chelatase (recombinant) (natural protein, M. smegmatis, UniProt A0R3L1 1-461, looked up)
chain: MVSQPKDLPRTVGELRASGHRERGVKAEIRENLLAALAERRDVWPGILGFEDTVIPQLERALIAGHDVVLLGERGQGKTRLLRALTGLLDEWTPVIAGSELGEHPYSPITPESIRRAADSGDDLPVEWRHRSERYTEKLATPDTSVADLVGDIDPIKVAEGRSLGDPETIAYGLIPRAHRGIVAVNELPDLAERIQVAMLNVMEERDIQVRGYTLRLPLDVLVVASANPEDYTNRGRIITPLKDRFGAEIRTHYPLELEAEVGVIRQEAELAAEVPEYLLAVLARFARNLRESNSIDQRSGVSARFAIAAAETVAASARHRAAILGEDDPVARVVDLGTVIDVLRGKLEFETGEEGREQAVLEHLLRRATADTAQRLLGGIDVGPLVAAIEEGSPVTTGERVSAKDVVAALPDLPAIDAIAHRLNAVSVGQRAAAIELALEALYLAKRIDKVSGEGETVYG
notes: H7-SUMO tags were removed with Ulp1 or left intact for microscale thermophoresis; also called Mg chelatase
B3: XRE (recombinant) (natural protein, M. smegmatis, UniProt A0QQY3 1-142, looked up)
chain: MAQDENLAAVVSNAAQDIGSFIRAQREAAQVSVRQLAEKAGVSNPYLSQIERGLRKPSADVLNQIAKALRVSAEVLYVRAGILEPSEPSEVRDAIVNDVSITERQKQVLLDIYTSFRQQNEAAGEPEGAAVIPSPDEEPATD
notes: H7-SUMO tags were removed with Ulp1 or left intact for microscale thermophoresis; also called Transcriptional regulator, XRE family protein

molecular target: T1, ^H7-SUMOClpC1^FLAG (recombinant ClpC1) (M. smegmatis, UniProt A0R574 1-848); experiment: MST; Monolith NT.115; 0.1 uM ^H7-SUMOClpC1^FLAG (hexamer) with 0.1 uM His Lite OG488-Tris-NTA-Ni dye, partner titrated; fit to a Hill-form binding equation; apparent (Kapp); settings: both partners purified
T1 construct: ClpC1 unfoldase, M. smegmatis; used at 0.1 uM (hexamer) in microscale thermophoresis; In the degradation assays (functional rows) ClpC1 stood with ClpP1P2 and its H7-SUMO tag may have been removed; not shown: H7-SUMO, N-terminal, kept; FLAG, C-terminal, kept
T1 sequence (A0R574 whole entry): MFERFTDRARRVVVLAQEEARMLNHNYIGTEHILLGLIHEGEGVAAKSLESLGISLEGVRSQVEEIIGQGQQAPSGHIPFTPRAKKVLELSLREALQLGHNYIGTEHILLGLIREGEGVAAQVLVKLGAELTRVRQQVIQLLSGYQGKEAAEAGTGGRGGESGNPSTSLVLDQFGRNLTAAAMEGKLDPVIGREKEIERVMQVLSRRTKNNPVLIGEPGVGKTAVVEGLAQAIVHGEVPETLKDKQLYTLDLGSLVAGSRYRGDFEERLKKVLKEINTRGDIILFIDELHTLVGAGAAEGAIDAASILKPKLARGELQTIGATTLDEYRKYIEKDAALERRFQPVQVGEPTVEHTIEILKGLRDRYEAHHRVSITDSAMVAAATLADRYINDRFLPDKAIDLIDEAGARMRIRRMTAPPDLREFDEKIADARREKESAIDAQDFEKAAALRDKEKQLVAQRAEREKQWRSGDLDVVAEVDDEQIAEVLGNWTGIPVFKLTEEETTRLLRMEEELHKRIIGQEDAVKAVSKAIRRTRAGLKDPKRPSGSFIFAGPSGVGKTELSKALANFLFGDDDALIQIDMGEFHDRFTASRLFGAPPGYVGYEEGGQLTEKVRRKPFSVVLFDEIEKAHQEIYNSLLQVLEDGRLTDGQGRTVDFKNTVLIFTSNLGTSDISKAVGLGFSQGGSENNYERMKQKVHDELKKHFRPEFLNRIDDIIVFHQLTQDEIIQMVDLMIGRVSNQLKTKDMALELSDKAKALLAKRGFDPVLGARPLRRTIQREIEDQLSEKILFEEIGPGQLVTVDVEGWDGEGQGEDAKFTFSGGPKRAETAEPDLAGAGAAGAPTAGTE

Binder	binding result
B1	binds
B2	binds
B3	binds

Source: publication PMC10433963, “Interactome Analysis Identifies MSMEI_3879 as a Substrate of Mycolicibacterium smegmatis ClpC1” (Microbiology Spectrum, 2023)
